Data: patent publication US20260125454A1 (SHANGHAI JUNSHI BIOSCIENCES, published 2026)
Numbering of substitutions follows the chain as printed.

T1: Biotin-huCGRPaSA (human, not fully specified; biotin (position not given))
T1 construct: exact construct ('aSA') not explained; also called Biotin CGRPaSA; full-length (1-37) CGRP
T1 peptide: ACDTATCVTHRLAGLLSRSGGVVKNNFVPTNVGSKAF

B1: hu32 (antibody, V domains shown)
VH: QVQLVQSGAEVKKPGASVKVSCKASGYTFIDFNMHWVRQAPGQRLEWMGYIYPYNGDVVYNQNFTNRVTLTVDTSSSTAYMELSSLRSEDTAVYYCAREGLGGYWGQGTLVTVSS
VL: EIVLTQSPATLSLSPGERATLSCKASQNIDFDGYAYMNWYQHKPGQAPRVLIYSVFNLESGIPARFSGSGSGTDFTLTISSLEPEDFAVYYCQQSHEVPYTFGQGTKLEIK
notes: 1F5 HC-1/1F5 LC1-2
B2: hu45 (antibody, V domains shown)
VH: B1 VH with I30T
VL: B1 VL
notes: 1F5 HC-2/1F5 LC1-2
B3: hu58 (antibody, V domains shown)
VH: B1 VH with I30T, R44G, S84R, E89D
VL: B1 VL
notes: 1F5 HC-3/1F5 LC1-2
B4: hu84 (antibody, V domains shown)
VH: B1 VH with G56A, N63D
VL: B1 VL
notes: 1F5 HC-5/1F5 LC1-2
B5: hu136 (antibody, V domains shown)
VH: QVQLVQSGAEVKKPGASVKVSCKASGYTFTDYNMHWVRQAPGQGLEWMGNIYPYNAGTVYNQKFNNRVTLTVDTSSSTAYMELSRLRSDDTAVYYCAREGLGGYWGQGTLVTVSS
VL: B1 VL
notes: 2B8 HC1-3/1F5 LC1-2
B6: hu151 (antibody, V domains shown)
VH: B1 VH with A24T, I30T, F32Y, Y52S, D57G, V58T, V59A, N63K, T65K, N66F
VL: DIVLTQSPDSLAVSLGERATINCKASQNIDFDGYAYMNWYQHKPGQPPKVLIYSVFNLESGVPDRFSGSGSGTDFTLTISSLQAEDVAVYYCQQSHEVPYTFGQGTKLEIK
notes: 3E5 HC-1/1F5 LC1-4
B7: hu86 (antibody, V domains shown)
VH: B1 VH with G56A, N63D
VL: B6 VL
notes: 1F5 HC-5/1F5 LC1-4
B8: hu74 (antibody, V domains shown)
VH: QVQLVQSGSELKKPGASVKVSCKASGYTFTDFNMHWVRQAPGQGLEWMGYIYPYNGDVVYNQNFTNRFVLSVDSSSSTAYLQISSLKAEDTAVYYCAREGLGGYWGQGTLVTVSS
VL: DIVLTQSPDSLAVSLGERATINCQASQNIDGNTYMNWYQQKPGQPPKVLIYSIFNLESGVPDRFSGSGSGTDFTLTISSLQAEDVAVYYCQQSNDYPYTFGQGTKLEIK
notes: 1F5 HC-4/2B8 LC2-1
B9: hu76 (antibody, V domains shown)
VH: B8 VH
VL: B6 VL with F31Y, A35T, M37L, H42Q, V55I, H96N
notes: 1F5 HC-4/3E5 LC-1
B10: hu77 (antibody, V domains shown)
VH: B8 VH
VL: B6 VL with F31Y, D32G, A35S, H42Q, H96N, V98A
notes: 1F5 HC-4/3H10 LC2-1
B11: hu66 (antibody, V domains shown)
VH: B8 VH
VL: DIVLTQSPASLAVSPGQRATITCKASQNIDYDGYAYLNWYQQKPGQPPKVLIYSVFNLESGVPARFSGSGSGTDFTLTINPVEANDTANYYCQQSNEFPYTFGQGTKLEIK
notes: 1F5 HC-4/1A2 LC2-1
B12: hu226 (antibody, V domains shown)
VH: QVQLVQSGAEVKKPGASVKVSCKASGYTFTGYTMNWVRQAPGQRLEWMGLINPYIGNTHYNQKFKDRVTFTVDRSSSTAYMELSSLRSEDTAVYYCARELDSGFDYWGQGTLVTVSS
VL: DVVMTQSPLSLPVTLGQPASISCRSSQNIVHSNGDTYLEWYQQRPGQSPRLLIYKVSNRFSGVPDRFSGSGSGTDFTLKISRVEAEDVGVYYCYQGSHVPWTFGQGTKLEIK
notes: 3C1 HC-2/3C1 LC-1
B13: hu222 (antibody, V domains shown)
VH: B12 VH with T28S
VL: B12 VL
notes: 3C1 HC-1/3C1 LC-1
B14: hu223 (antibody, V domains shown)
VH: B12 VH with T28S
VL: B12 VL with S7T, P12S, L15P, Q42L, R44K, R50Q
notes: 3C1 HC-1/3C1 LC-2
B15: hu227 (antibody, V domains shown)
VH: B12 VH
VL: B12 VL with S7T, P12S, L15P, Q42L, R44K, R50Q
notes: 3C1 HC-2/3C1 LC-2
B16: hu230 (antibody, V domains shown)
VH: QVQLVQSGSELKKPGASVKVSCKASGYTFTGYTMNWVRQAPGQGLEWMGLINPYIGNTHYNQKFKDRFVFSVDRSSSTAYLQISSLKAEDTAVYYCARELDSGFDYWGQGTLVTVSS
VL: B12 VL
notes: 3C1 HC-3/3C1 LC-1
B17: hu234 (antibody, V domains shown)
VH: B12 VH with R44G, S85R, E89D
VL: B12 VL
notes: 3C1 HC-4/3C1 LC-1
B18: hu235 (antibody, V domains shown)
VH: B12 VH with R44G, S85R, E89D
VL: B12 VL with S7T, P12S, L15P, Q42L, R44K, R50Q
notes: 3C1 HC-4/3C1 LC-2
B19: hu228 (antibody, human IgG4 S228P, kappa, V domains shown)
VH: B12 VH
VL: DVVMTQSPDSLAVSLGERATINCRSSQNIVHSNGDTYLEWYQQKPGQPPKLLIYKVSNRFSGVPDRFSGSGSGTDFTLTISSLQAEDVAVYYCYQGSHVPWTFGQGTKLEIKR
B20: hu229 (antibody, V domains shown)
VH: B12 VH
VL: DVVMTQSPDSLAVSLGERATINCRSSQNIVHSNADTYLEWYQQKPGQPPKLLIYKVSNRFSGVPDRFSGSGSGTDFTLTISSLQAEDVAVYYCYQGSHVPWTFGQGTKLEIK
notes: 3C1 HC-2/3C1 LC-4
B21: hu225 (antibody, V domains shown)
VH: B12 VH with T28S
VL: B20 VL
notes: 3C1 HC-1/3C1 LC-4
B22: hu232 (antibody, V domains shown)
VH: B16 VH
VL: B20 VL with A34G
notes: 3C1 HC-3/3C1 LC-3
B23: hu233 (antibody, V domains shown)
VH: B16 VH
VL: B20 VL
notes: 3C1 HC-3/3C1 LC-4
B24: hu236 (antibody, V domains shown)
VH: B12 VH with R44G, S85R, E89D
VL: B20 VL with A34G
notes: 3C1 HC-4/3C1 LC-3
B25: hu237 (antibody, V domains shown)
VH: B12 VH with R44G, S85R, E89D
VL: B20 VL
notes: 3C1 HC-4/3C1 LC-4
B26: hu231 (antibody, human IgG4 S228P, kappa, V domains shown)
VH: B16 VH
VL: DVVMTQTPLSLSVTPGQPASISCRSSQNIVHSNGDTYLEWYLQKPGQSPQLLIYKVSNRFSGVPDRFSGSGSGTDFTLKISRVEAEDVGVYYCYQGSHVPWTFGQGTKLEIKR

Biological target: T1, Biotin-huCGRPaSA
Test: ELISA, supernatant; relative to chimeric C245
In short: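 Antibodies, including reference chimeric C245, titrated 2.5-fold from 1000 ng/mL and incubated 60 min at 37°C on wells coated with 1.0 μg/mL biotin-CGRPaSA and blocked with 2% BSA. Bound IgG detected with HRP anti-human Fc antibody and TMB, acid-stopped, absorbance 450/620 nm.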

Point of comparison: B7, “Relative binding activity, %” value 118%. Against it:
- B1 — lower, 116%
- B2 — higher, 119%
- B3 — lower, 113%
- B4 — lower, 111%
- B5 — lower, 101%
- B6 — higher, 119%
- B8 — lower, 112%
- B9 — lower, 112%
- B10 — lower, 112%
- B11 — higher, 129%
- B12 — lower, 65%
- B13 — lower, 65%
- B14 — lower, 71%
- B15 — lower, 64%
- B16 — lower, 64%
- B17 — lower, 50%
- B18 — lower, 74%
- B19 — lower, 68%
- B20 — lower, 48%
- B21 — lower, 52%
- B22 — lower, 70%
- B23 — lower, 68%
- B24 — lower, 68%
- B25 — lower, 65%
- B26 — lower, 68%

Biological target: CGRP antigen
Test: cell-based or functional assay

Point of comparison: B22, “IC50” value 0.044 µg/mL. Against it:
- B1 — 3.1-fold higher, 0.137 µg/mL
- B2 — 2.5-fold higher, 0.108 µg/mL
- B3 — within 1.5-fold, 0.0619 µg/mL
- B4 — 5.8-fold higher, 0.256 µg/mL
- B5 — 2.8-fold higher, 0.124 µg/mL
- B6 — 1.5-fold higher, 0.0677 µg/mL
- B7 — 3-fold higher, 0.134 µg/mL
- B8 — 1.7-fold higher, 0.0739 µg/mL
- B9 — within 1.5-fold, 0.0649 µg/mL
- B10 — 1.8-fold higher, 0.0778 µg/mL
- B11 — within 1.5-fold, 0.0566 µg/mL
- B12 — within 1.5-fold, 0.0446 µg/mL
- B13 — within 1.5-fold, 0.039 µg/mL
- B14 — within 1.5-fold, 0.0353 µg/mL
- B15 — within 1.5-fold, 0.0368 µg/mL
- B16 — within 1.5-fold, 0.0464 µg/mL
- B17 — within 1.5-fold, 0.0429 µg/mL
- B18 — within 1.5-fold, 0.0619 µg/mL
- B19 — 1.6-fold lower, 0.0267 µg/mL
- B20 — 1.9-fold higher, 0.0851 µg/mL
- B21 — 4.2-fold higher, 0.185 µg/mL
- B23 — 2-fold higher, 0.0877 µg/mL
- B24 — within 1.5-fold, 0.0514 µg/mL
- B25 — 2.9-fold higher, 0.129 µg/mL
- B26 — 1.5-fold lower, 0.0284 µg/mL

Point of comparison: B8, “relative activity (%) vs Ref(TEVA)” value 58%. Against it:
- B1 — lower, 26%
- B2 — lower, 33%
- B3 — lower, 50%
- B4 — lower, 19%
- B5 — lower, 28%
- B6 — lower, 48%
- B7 — lower, 35%
- B9 — higher, 66%
- B10 — lower, 55%
- B11 — higher, 89%

Point of comparison: B20, “relative activity (%) vs C245” value 28%. Against it:
- B12 — higher, 53%
- B13 — higher, 46%
- B14 — higher, 51%
- B15 — higher, 64%
- B16 — higher, 56%
- B17 — higher, 65%
- B18 — higher, 45%
- B19 — higher, 88%
- B21 — lower, 10%
- B22 — higher, 59%
- B23 — higher, 30%
- B24 — higher, 55%
- B25 — lower, 22%
- B26 — higher, 91%
